We go through 2 substances from article PMC3529520.

Assay [1] deals with YFP-tagged murine Syx S806A (mouse) (UniProt Q66T02). Kind of assay: co-IP.
The next assay addresses Mupp1 (UniProt O75970). Kind of assay: co-IP with anti-GFP, Mupp1 blot. The conditions noted are these: reference: wild-type YFP-Syx; sites S806.

UniProt Q66T02, sequence (Q66T02 whole entry S806A): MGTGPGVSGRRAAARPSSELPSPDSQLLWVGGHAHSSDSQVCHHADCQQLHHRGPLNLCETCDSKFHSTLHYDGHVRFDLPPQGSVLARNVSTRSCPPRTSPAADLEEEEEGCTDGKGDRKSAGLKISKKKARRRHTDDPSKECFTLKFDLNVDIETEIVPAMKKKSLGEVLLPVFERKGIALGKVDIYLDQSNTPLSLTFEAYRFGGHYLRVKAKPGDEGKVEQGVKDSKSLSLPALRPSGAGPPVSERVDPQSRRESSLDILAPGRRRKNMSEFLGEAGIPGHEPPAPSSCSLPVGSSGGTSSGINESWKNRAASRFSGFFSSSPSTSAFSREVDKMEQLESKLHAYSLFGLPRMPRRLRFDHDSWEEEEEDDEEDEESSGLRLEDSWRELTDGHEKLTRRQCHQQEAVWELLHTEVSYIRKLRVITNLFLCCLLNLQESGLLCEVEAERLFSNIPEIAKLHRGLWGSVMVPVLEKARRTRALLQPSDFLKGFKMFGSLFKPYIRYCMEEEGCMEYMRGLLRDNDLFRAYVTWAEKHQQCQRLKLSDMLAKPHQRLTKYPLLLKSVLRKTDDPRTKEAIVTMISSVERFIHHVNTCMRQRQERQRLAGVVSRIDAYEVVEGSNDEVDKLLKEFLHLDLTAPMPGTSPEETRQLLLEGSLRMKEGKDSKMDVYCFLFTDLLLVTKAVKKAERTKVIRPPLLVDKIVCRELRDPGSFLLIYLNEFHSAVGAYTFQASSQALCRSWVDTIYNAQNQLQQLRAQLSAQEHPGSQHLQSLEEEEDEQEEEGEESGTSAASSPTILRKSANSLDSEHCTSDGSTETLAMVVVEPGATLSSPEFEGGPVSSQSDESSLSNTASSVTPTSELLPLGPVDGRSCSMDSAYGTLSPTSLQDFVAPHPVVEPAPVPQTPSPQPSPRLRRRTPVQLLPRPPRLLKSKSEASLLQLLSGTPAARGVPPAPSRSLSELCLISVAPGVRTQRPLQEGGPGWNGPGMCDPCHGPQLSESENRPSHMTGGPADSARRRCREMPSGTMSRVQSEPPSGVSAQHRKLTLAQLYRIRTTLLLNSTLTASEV

Consider “Mupp1 (multiple PDZ domain protein 1), O75970 1-2070”, for which the amount of Mupp1 coimmunoprecipitated, fold of that with YFP-Syx in assay [1] was 2 fold.
On to “Syx (murine, YFP-mSyx) (from UniProt Q66T02) YFP-Syx-S806A”, for which, in the assay with Mupp1, the fold change entry was “stronger”.
